The Human Domainome abundance scans (Beltran et al. 2025)
± gives the uncertainty stated by the source.

Assay: abundance fitness (aPCA) (normalised: wild type 0, dead -1); higher = more abundant; growth selection in yeast, the domain comes from the species named
Details: Homo sapiens

Substance	abundance fitness
NEDD4-like E3 ubiquitin-protein ligase WWP2 R493Y, O00308	-0.055 ± 0.055
NEDD4-like E3 ubiquitin-protein ligase WWP2 S456A, O00308	-0.066 ± 0.048
NEDD4-like E3 ubiquitin-protein ligase WWP2 S456C, O00308	-0.01 ± 0.063
NEDD4-like E3 ubiquitin-protein ligase WWP2 S456D, O00308	0.085 ± 0.071
NEDD4-like E3 ubiquitin-protein ligase WWP2 S456E, O00308	0.017 ± 0.035
NEDD4-like E3 ubiquitin-protein ligase WWP2 S456F, O00308	-0.24 ± 0.063
NEDD4-like E3 ubiquitin-protein ligase WWP2 S456G, O00308	-0.043 ± 0.046
NEDD4-like E3 ubiquitin-protein ligase WWP2 S456H, O00308	0.346 ± 0.096
NEDD4-like E3 ubiquitin-protein ligase WWP2 S456K, O00308	-0.039 ± 0.054
NEDD4-like E3 ubiquitin-protein ligase WWP2 S456L, O00308	-0.169 ± 0.05
NEDD4-like E3 ubiquitin-protein ligase WWP2 S456M, O00308	-0.06 ± 0.065
NEDD4-like E3 ubiquitin-protein ligase WWP2 S456N, O00308	0.04 ± 0.074
NEDD4-like E3 ubiquitin-protein ligase WWP2 S456P, O00308	-0.062 ± 0.062
NEDD4-like E3 ubiquitin-protein ligase WWP2 S456Q, O00308	-0.11 ± 0.066
NEDD4-like E3 ubiquitin-protein ligase WWP2 S456R, O00308	-0.142 ± 0.041
NEDD4-like E3 ubiquitin-protein ligase WWP2 S456T, O00308	-0.04 ± 0.06
NEDD4-like E3 ubiquitin-protein ligase WWP2 S456V, O00308	-0.208 ± 0.059
NEDD4-like E3 ubiquitin-protein ligase WWP2 S456W, O00308	-0.192 ± 0.047
NEDD4-like E3 ubiquitin-protein ligase WWP2 S456Y, O00308	-0.589 ± 0.12
NEDD4-like E3 ubiquitin-protein ligase WWP2 S481A, O00308	0 ± 0.061
NEDD4-like E3 ubiquitin-protein ligase WWP2 S481C, O00308	-0.054 ± 0.061
NEDD4-like E3 ubiquitin-protein ligase WWP2 S481D, O00308	0.01 ± 0.037

Substance	abundance fitness
NEDD4-like E3 ubiquitin-protein ligase WWP2 S481E, O00308	0.022 ± 0.071
NEDD4-like E3 ubiquitin-protein ligase WWP2 S481F, O00308	-0.039 ± 0.062
NEDD4-like E3 ubiquitin-protein ligase WWP2 S481G, O00308	-0.032 ± 0.047
NEDD4-like E3 ubiquitin-protein ligase WWP2 S481H, O00308	-0.17 ± 0.08
NEDD4-like E3 ubiquitin-protein ligase WWP2 S481I, O00308	-0.047 ± 0.067
NEDD4-like E3 ubiquitin-protein ligase WWP2 S481K, O00308	-0.072 ± 0.049
NEDD4-like E3 ubiquitin-protein ligase WWP2 S481L, O00308	-0.081 ± 0.053
NEDD4-like E3 ubiquitin-protein ligase WWP2 S481N, O00308	-0.062 ± 0.054
NEDD4-like E3 ubiquitin-protein ligase WWP2 S481P, O00308	0.003 ± 0.049
NEDD4-like E3 ubiquitin-protein ligase WWP2 S481Q, O00308	-0.014 ± 0.039
NEDD4-like E3 ubiquitin-protein ligase WWP2 S481R, O00308	-0.042 ± 0.034
NEDD4-like E3 ubiquitin-protein ligase WWP2 S481T, O00308	0.029 ± 0.047
NEDD4-like E3 ubiquitin-protein ligase WWP2 S481V, O00308	-0.151 ± 0.056
NEDD4-like E3 ubiquitin-protein ligase WWP2 S481W, O00308	-0.09 ± 0.035
NEDD4-like E3 ubiquitin-protein ligase WWP2 S481Y, O00308	-0.102 ± 0.063
NEDD4-like E3 ubiquitin-protein ligase WWP2 S487A, O00308	-0.034 ± 0.055
NEDD4-like E3 ubiquitin-protein ligase WWP2 S487C, O00308	-0.032 ± 0.04
NEDD4-like E3 ubiquitin-protein ligase WWP2 S487D, O00308	0.013 ± 0.036
NEDD4-like E3 ubiquitin-protein ligase WWP2 S487E, O00308	0.025 ± 0.034
NEDD4-like E3 ubiquitin-protein ligase WWP2 S487F, O00308	-0.112 ± 0.057
NEDD4-like E3 ubiquitin-protein ligase WWP2 S487G, O00308	-0.03 ± 0.034
NEDD4-like E3 ubiquitin-protein ligase WWP2 S487H, O00308	0.111 ± 0.073

Substance	abundance fitness
NEDD4-like E3 ubiquitin-protein ligase WWP2 S487I, O00308	-0.038 ± 0.074
NEDD4-like E3 ubiquitin-protein ligase WWP2 S487K, O00308	0.016 ± 0.038
NEDD4-like E3 ubiquitin-protein ligase WWP2 S487L, O00308	-0.067 ± 0.04
NEDD4-like E3 ubiquitin-protein ligase WWP2 S487M, O00308	-0.024 ± 0.057
NEDD4-like E3 ubiquitin-protein ligase WWP2 S487N, O00308	-0.034 ± 0.04
NEDD4-like E3 ubiquitin-protein ligase WWP2 S487Q, O00308	-0.024 ± 0.061
NEDD4-like E3 ubiquitin-protein ligase WWP2 S487R, O00308	-0.006 ± 0.034
NEDD4-like E3 ubiquitin-protein ligase WWP2 S487T, O00308	0.058 ± 0.059
NEDD4-like E3 ubiquitin-protein ligase WWP2 S487V, O00308	-0.034 ± 0.035
NEDD4-like E3 ubiquitin-protein ligase WWP2 S487W, O00308	-0.149 ± 0.05
NEDD4-like E3 ubiquitin-protein ligase WWP2 T455A, O00308	-0.659 ± 0.061
NEDD4-like E3 ubiquitin-protein ligase WWP2 T455C, O00308	-0.339 ± 0.068
NEDD4-like E3 ubiquitin-protein ligase WWP2 T455E, O00308	-0.563 ± 0.18
NEDD4-like E3 ubiquitin-protein ligase WWP2 T455F, O00308	-0.912 ± 0.14
NEDD4-like E3 ubiquitin-protein ligase WWP2 T455G, O00308	-0.379 ± 0.045
NEDD4-like E3 ubiquitin-protein ligase WWP2 T455I, O00308	-0.529 ± 0.08
NEDD4-like E3 ubiquitin-protein ligase WWP2 T455K, O00308	-0.628 ± 0.082
NEDD4-like E3 ubiquitin-protein ligase WWP2 T455L, O00308	-0.258 ± 0.048
NEDD4-like E3 ubiquitin-protein ligase WWP2 T455M, O00308	-0.415 ± 0.066
NEDD4-like E3 ubiquitin-protein ligase WWP2 T455N, O00308	-0.147 ± 0.073
NEDD4-like E3 ubiquitin-protein ligase WWP2 T455P, O00308	-0.968 ± 0.071
NEDD4-like E3 ubiquitin-protein ligase WWP2 T455R, O00308	-0.762 ± 0.038

Substance	abundance fitness
NEDD4-like E3 ubiquitin-protein ligase WWP2 T455S, O00308	-0.115 ± 0.041
NEDD4-like E3 ubiquitin-protein ligase WWP2 T455V, O00308	-0.678 ± 0.05
NEDD4-like E3 ubiquitin-protein ligase WWP2 T455W, O00308	-0.866 ± 0.1
NEDD4-like E3 ubiquitin-protein ligase WWP2 T455Y, O00308	-0.62 ± 0.07
NEDD4-like E3 ubiquitin-protein ligase WWP2 T467A, O00308	-0.098 ± 0.12
NEDD4-like E3 ubiquitin-protein ligase WWP2 T467I, O00308	-0.421 ± 0.26
NEDD4-like E3 ubiquitin-protein ligase WWP2 T467R, O00308	-0.405 ± 0.18
NEDD4-like E3 ubiquitin-protein ligase WWP2 T467S, O00308	-0.136 ± 0.056
NEDD4-like E3 ubiquitin-protein ligase WWP2 T469C, O00308	-0.078 ± 0.057
NEDD4-like E3 ubiquitin-protein ligase WWP2 T469D, O00308	-0.257 ± 0.055
NEDD4-like E3 ubiquitin-protein ligase WWP2 T469E, O00308	-0.228 ± 0.034
NEDD4-like E3 ubiquitin-protein ligase WWP2 T469F, O00308	-0.215 ± 0.068
NEDD4-like E3 ubiquitin-protein ligase WWP2 T469G, O00308	-0.346 ± 0.054
NEDD4-like E3 ubiquitin-protein ligase WWP2 T469H, O00308	-0.26 ± 0.036
NEDD4-like E3 ubiquitin-protein ligase WWP2 T469M, O00308	-0.096 ± 0.053
NEDD4-like E3 ubiquitin-protein ligase WWP2 T469N, O00308	-0.093 ± 0.072
NEDD4-like E3 ubiquitin-protein ligase WWP2 T469P, O00308	-1.16 ± 0.13
NEDD4-like E3 ubiquitin-protein ligase WWP2 T469Q, O00308	-0.196 ± 0.06
NEDD4-like E3 ubiquitin-protein ligase WWP2 T469R, O00308	-0.243 ± 0.038
NEDD4-like E3 ubiquitin-protein ligase WWP2 T469S, O00308	-0.032 ± 0.041
NEDD4-like E3 ubiquitin-protein ligase WWP2 T469V, O00308	-0.151 ± 0.038
NEDD4-like E3 ubiquitin-protein ligase WWP2 T469W, O00308	-0.502 ± 0.036
